Source: publication PMC5071168

How the values were obtained:
[1] = target: triosephosphate isomerase from Litopenaeus vannamei (LvTIM), wild type (Litopenaeus vannamei); assay: SEC
[2] = target: LvTIM-Cys47Ala (Litopenaeus vannamei)

| Substance | stoichiometry N [1] | catalytic efficiency (kcat/Km) of LvTIM-Cys47Ala, similar to wild-type LvTIM [2] [M⁻¹ s⁻¹] |
| --- | --- | --- |
| triosephosphate isomerase from Litopenaeus vannamei (LvTIM), wild type (enzyme) | 2 | – |
| LvTIM-Cys47Ala (enzyme) | – | 2.33e+06 |
